Results taken from patent publication EP4596582A1 (Sichuan Kelun-Biotech Biopharmaceutical Co., Ltd., dated 2025).

What was measured:
[1] = biological target: T1, human B7-H3-4Ig-His protein (human, UniProt Q5ZPR3 29-466); experiment: BLI (ForteBio), antibody captured on Protein A sensor, 1:1 global fit
T1 construct: extracellular domain; Made in HEK293-EBNA cells
T1 sequence: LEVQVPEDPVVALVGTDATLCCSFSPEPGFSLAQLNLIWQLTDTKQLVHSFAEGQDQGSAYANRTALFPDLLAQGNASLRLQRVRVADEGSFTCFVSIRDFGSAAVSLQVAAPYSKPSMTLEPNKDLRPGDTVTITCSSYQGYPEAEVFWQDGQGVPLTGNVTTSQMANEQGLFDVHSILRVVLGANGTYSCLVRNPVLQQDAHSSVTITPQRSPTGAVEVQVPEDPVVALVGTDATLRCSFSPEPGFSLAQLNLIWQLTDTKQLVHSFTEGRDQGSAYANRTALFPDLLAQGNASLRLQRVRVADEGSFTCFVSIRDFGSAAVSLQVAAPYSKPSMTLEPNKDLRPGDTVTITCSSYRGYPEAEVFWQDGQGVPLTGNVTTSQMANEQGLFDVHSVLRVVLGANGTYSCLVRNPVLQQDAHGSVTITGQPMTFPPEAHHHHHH

[2] = biological target: T2, human B7-H3-2Ig-His protein (human); experiment: as above
T2 chain: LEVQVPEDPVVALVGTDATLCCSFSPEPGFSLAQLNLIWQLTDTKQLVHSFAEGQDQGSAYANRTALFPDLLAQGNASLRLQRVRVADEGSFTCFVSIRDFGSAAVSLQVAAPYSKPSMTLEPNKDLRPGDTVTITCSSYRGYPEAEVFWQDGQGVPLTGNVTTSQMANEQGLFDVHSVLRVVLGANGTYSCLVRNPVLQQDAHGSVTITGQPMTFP

[3] = biological target: T3, monkey B7-H3-4Ig-His protein (monkey); experiment: as above
T3 chain: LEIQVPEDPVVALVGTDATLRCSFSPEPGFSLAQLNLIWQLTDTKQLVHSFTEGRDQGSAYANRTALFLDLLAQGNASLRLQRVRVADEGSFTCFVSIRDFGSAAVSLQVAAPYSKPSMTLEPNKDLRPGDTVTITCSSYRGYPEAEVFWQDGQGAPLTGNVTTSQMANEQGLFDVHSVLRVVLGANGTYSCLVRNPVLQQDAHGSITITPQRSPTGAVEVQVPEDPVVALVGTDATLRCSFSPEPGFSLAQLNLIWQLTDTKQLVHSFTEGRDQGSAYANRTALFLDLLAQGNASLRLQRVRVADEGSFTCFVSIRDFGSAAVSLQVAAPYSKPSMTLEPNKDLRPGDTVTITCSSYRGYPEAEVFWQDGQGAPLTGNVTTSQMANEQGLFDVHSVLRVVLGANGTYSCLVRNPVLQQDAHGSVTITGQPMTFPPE

[4] = biological target: T4, human B7-H3-2Ig on CHO-S cells (CHO-S-human B7-H3-2Ig) (human, UniProt Q5ZPR3 29-316); experiment: flow cytometry on CHO-S-human B7-H3-2Ig cells
T4 construct: also called CHO-S-B7-H3-2Ig
T4 sequence: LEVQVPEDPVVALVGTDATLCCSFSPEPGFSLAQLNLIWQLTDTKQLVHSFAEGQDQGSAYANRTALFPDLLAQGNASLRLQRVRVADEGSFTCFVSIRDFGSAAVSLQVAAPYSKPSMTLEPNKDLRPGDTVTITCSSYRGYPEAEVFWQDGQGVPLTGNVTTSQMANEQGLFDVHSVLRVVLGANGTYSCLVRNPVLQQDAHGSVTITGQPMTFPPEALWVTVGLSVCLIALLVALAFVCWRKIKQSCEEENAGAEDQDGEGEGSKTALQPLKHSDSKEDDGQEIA

human B7-H1-mFc = biological target: T5, human B7-H1-mFc (human, UniProt Q9NZQ7 19-238); experiment: ELISA, antigen coated at 1 ug/ml, 2#8890-biotin detected with streptavidin-peroxidase
T5 construct: Self-constructed; not shown: mFc
T5 sequence (Q9NZQ7 19-238): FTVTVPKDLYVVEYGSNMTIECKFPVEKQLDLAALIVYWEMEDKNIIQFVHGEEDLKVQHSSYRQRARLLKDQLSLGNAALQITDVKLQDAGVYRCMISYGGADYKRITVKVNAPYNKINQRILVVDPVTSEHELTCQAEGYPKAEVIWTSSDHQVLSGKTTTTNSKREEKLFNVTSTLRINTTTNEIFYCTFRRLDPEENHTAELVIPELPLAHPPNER

human B7-H4-hFc = biological target: T6, human B7-H4-hFc (human, UniProt Q7Z7D3 25-259); experiment: as above
T6 construct: Bought protein; not shown: hFc
T6 sequence (looked up): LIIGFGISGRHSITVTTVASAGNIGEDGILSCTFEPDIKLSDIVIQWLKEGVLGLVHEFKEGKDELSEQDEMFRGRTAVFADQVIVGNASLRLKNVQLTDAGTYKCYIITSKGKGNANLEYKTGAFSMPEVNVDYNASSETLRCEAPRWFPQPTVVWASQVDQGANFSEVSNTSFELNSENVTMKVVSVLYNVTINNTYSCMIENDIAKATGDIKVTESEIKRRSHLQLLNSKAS

[5] = biological target: T7, human B7-H3 on human tumor cells (MCF-7, HT29, NCI-N87, HCC1806, HCC827) (human, UniProt Q5ZPR3 29-534); experiment: cell-based or functional assay
T7 sequence (looked up): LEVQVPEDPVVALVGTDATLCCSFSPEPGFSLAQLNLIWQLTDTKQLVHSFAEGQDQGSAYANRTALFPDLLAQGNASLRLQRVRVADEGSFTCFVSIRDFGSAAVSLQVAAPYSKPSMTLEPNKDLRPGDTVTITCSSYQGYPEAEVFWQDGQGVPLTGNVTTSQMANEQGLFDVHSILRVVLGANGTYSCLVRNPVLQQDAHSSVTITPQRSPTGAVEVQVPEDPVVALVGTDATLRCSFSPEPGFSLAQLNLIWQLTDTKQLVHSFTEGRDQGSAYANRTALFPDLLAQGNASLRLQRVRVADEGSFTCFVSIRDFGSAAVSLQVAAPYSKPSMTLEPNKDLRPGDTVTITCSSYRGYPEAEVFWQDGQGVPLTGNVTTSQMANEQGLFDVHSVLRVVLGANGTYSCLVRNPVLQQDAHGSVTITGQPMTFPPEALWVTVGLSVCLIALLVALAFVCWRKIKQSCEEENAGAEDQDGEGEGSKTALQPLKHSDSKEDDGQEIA

[6] = biological target: T8, monkey B7-H3 on CHO-S cells (CHO-S-monkey B7-H3) (monkey); experiment: flow cytometry on CHO-S-monkey B7-H3 cells
T8 construct: whole, on cells; also called monkey B7-H3-overexpressed cells

[7] = biological target: T7, human B7-H3 on human tumor cells …; experiment: flow cytometry on HT29 cells

B1: anti-human-B7-H3 human antibody 2#8890 (antibody, human IgG1, kappa, V domains shown)
VH: QVQLQESGPGLVQPSGTLSLTCAVSGGSDSSTNWWTWVRQSPGQGLEWIGEISPIGFTSYSPSLRSRVTISVDKSKTQFSLKLSSVTAADTAVYYCARDRLYFAFWGQGTLVTVSS
VL: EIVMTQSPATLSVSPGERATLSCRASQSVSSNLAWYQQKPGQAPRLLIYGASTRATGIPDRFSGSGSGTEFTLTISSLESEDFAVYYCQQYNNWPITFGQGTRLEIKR
Work on B1 yielded a Kd [1] of 0.783 nM, a Kd [2] of 18.3 nM and a Kd [3] of 1.24 nM. For the same binder, the EC50 [4] was 0.0684 µg/mL, the binding result (human B7-H1-mFc) was “no binding (tested: 10 ug/ml highest concentration)” and the binding result (human B7-H4-hFc) was “no binding (tested: 10 ug/ml highest concentration)”. The “Endocytosis EC50 on HCC827 cells (PHrodo, flow cytometry)” value [5] was 0.0102 µg/mL, the “Endocytosis EC50 on HCC1806 cells (PHrodo, flow cytometry)” value [5] was 0.0206 µg/mL and the “Endocytosis EC50 on NCI-N87 cells (PHrodo, flow cytometry)” value [5] was 0.0122 µg/mL. It also gave an EC50 [6] of 0.0649 µg/mL and an EC50 [7] of 0.00634 µg/mL.
